Results as given in patent US20210206842A1 (NATIONAL RESEARCH COUNCIL OF CANADA, published 2021).

T1: peptide #2a (20 aa) (human)
T1 construct: Custom-synthesized (Biomatik); also called pep #2a; P2a
T1 peptide: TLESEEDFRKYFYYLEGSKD

T2: peptide #2b (20 aa) (human)
T2 construct: Custom-synthesized (Biomatik); also called pep #2b; P2b
T2 peptide: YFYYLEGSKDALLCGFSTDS

T3: peptide #40a (40 aa) (human)
T3 construct: Custom-synthesized (Biomatik); also called pep #40a; P40a
T3 peptide: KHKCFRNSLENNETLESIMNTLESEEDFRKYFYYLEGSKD

B1: VHH DI-D (VHH)
VHH: QVKLEESGGGLVQPGGSLKLSCVASGFAFSSAPMDWVRKAPGKDVEWLSTIESDQDHTIYYANSVKGRFTISRDDVQNILYLQMNDLKIEDTATYYCQKRGEKKTRGQGTQVTVSS
notes: From the naive LAC-M library; soluble tagged monomer in protein ELISA, SPR and patch clamp; also called phage D; clone D; not shown: 6xHis and c-Myc tags on the soluble monomer
B2: anti-hNav1.7 mAb 2G11 (antibody, V domains shown)
VH: QVQLQQPGAELVKPGASVKLSCKASGYTFTTYWMHWVKQRPGQGLEWIGEINPSNGRANYNEKFKSKATLTVDKSSSTAYMQLSSLTSEDSAVYYCLRSLGYFDYWGQGTTLTVSS
VL: DVVMTQSPLSLPVSLGDQASISCRSSQSLVHSNGNTYLHWYLQKAGQSPKFLIYKVSNRFSGVPDRFSGSGSGTDFTLKISRVEAEDLGVYFCSQSTHVPYTFGGGTKLEIK

Legend:
human Nav1.7 polypeptide [1] = biological target: T4, human Nav1.7 polypeptide (human, UniProt Q15858 1-1988); assay: cell-based or functional assay
[2] = biological target: T5, FC5DIE3IR recombinant protein; assay: SPR, multiple cycle kinetics, VHH over immobilized FC5DIE3IR
T5 construct: Made in CHO-3E7 cells; also called FC5DIE31R; FC5DIE3R

[3] = biological target: T5, FC5DIE3IR recombinant protein; assay: SPR (Biacore T200), VHH flowed over immobilized FC5DIE3IR, steady state fit, 25 C
Text: Surface Plasmon Resonance for VHH antibodies. […] Monomeric VHH fractions were collected and protein concentration determined by measuring A280 measurement. Using a Biacore T200 instrument (GE Healthcare), approximately 500-1000 RUs of FC5DIE3IR, FC5 and an irrelevant VHH (2A3-H4) were immobilized on a CM5 Series S sensor chip (GE Healthcare) at pH 4.0 using standard amine coupling according to the manufacturer's instructions (GE Healthcare). […] Surfaces were regenerated by washing with a 120 s pulse of 10 mM glycine pH 1.5. Data were analyzed with Biacore T200 Software v 3.0 and affinities determined using steady state binding or a 1:1 binding model.
Surface Plasmon Resonance (SPR).

[4] = biological target: T5, FC5DIE3IR recombinant protein; assay: SPR steady-state plot (Req against Conc up to 5e-6), VHH DI-D over immobilized FC5DIE3IR
VHH FC5 [5] = biological target: T6, VHH FC5; assay: ELISA, hybridoma supernatant on coated purified FC5-VHH
T6 construct: put together from its FR and CDR entries; also called FC5-VHH; FC5 control
T6 sequence (VHH, as listed by the source): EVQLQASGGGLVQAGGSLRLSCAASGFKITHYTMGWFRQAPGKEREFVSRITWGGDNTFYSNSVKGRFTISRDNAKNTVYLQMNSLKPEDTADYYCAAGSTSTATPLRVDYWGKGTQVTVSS
Protocol: (§1) Screening. Hybridoma supernatants were screened by ELISA to detect specific binders. To this end, 96-well half-area plates (Costar #3690) were coated with 25 μl of FC5DIE3IR or FC5-VHH or FC5-hFc-1X0 at 5 μg/ml in PBS and incubated overnight at 4° C. Microplates were washed 3 times with PBS, blocked with PBS-BSA 1%, and 25 μl of hybridoma supernatants were added and incubated at 37° C., 5% CO₂ for 2 hours. […] After 4 washes with PBS-Tween 20 0.05%, 25 μl of a 1 mg/ml pNPP substrate solution was added and further incubated for one hour at 37° C.

[6] = biological target: T5, FC5DIE3IR recombinant protein; assay: ELISA, hybridoma supernatant on coated purified FC5DIE3IR
Protocol: as §1

VHH FC5 [7] = biological target: T6, VHH FC5; assay: SPR, single cycle kinetics, Fc-captured mAb, FC5 flowed, 25 C
Protocol: (§2) HBS-EP running buffer used for SPR experiments. […] Test binding experiments of FC5 control and FC5DIE3IR involved flowing 1 μM concentrations of SEC-pure material over the mAb surface at a flow rate of 30 μl/min for 5 min. Surfaces could be regenerated using 10 mM glycine, pH 1.7, with a 120 sec pulse at 20 μl/min. All SPR experiments were evaluated with Biacore T200 Software v 3.0. […] Regeneration conditions were the same as above. Data were fit to a 1:1 binding model and analyzed using the Biacore T200 Software v3.0.

peptide #2a (20 aa) = biological target: T1, peptide #2a (20 aa); assay: ELISA on coated P2a, mAb at the dilutions 1:1000, 1:5000 and 1:10000, Abs 450nm
Protocol: (§3) The peptides were custom-synthesized (Biomatik) and tested for antibody binding by ELISA. […] The wells were blocked with 1% BSA in TBS-T for 30 min and then incubated with 1:1000 dilution of anti-hNaᵥ1.7 mAb at room temperature (RT) for one hr.

peptide #2b (20 aa) = biological target: T2, peptide #2b (20 aa); assay: ELISA on coated P2b, mAb at the dilutions 1:1000, 1:5000 and 1:10000, Abs 450nm
Protocol: as §3

human Nav1.7 polypeptide [8] = biological target: T4, human Nav1.7 polypeptide; assay: cell ELISA, hybridoma supernatant on live CHO cells expressing human Nav1.7, duplicate 1
Protocol: (§4) Cell-ELISA. Sterile 96-well plates (Costar #3595) were pre-treated with 50 μl/well of branched polyethyleneimine (PEI, Sigma Cat #408727) at 25 μg/ml in PBS for 30 min at room temperature. PEI was removed and CHO-3E7 or hNAᵥ1.7-CHO (ChanTest cat #CT4003) were seeded at 6×10⁵ cells per well in FreeStyle F17 Expression Medium (Gibco Cat #A1383501) and incubated overnight at 37° C., 5% CO₂. Microplates were blocked with Starting block (Thermofisher Cat #37538) for 30 min at room temperature, and 50 μl of hybridoma supernatants were added and incubated at 4° C. for 3 h. […] After 10 washes with PBS, 50 μl of TMB substrate solution (Pierce Cat #34021) was added and further incubated for 60 min at room temperature.

human Nav1.7 polypeptide [9] = biological target: T4, human Nav1.7 polypeptide; assay: cell ELISA, hybridoma supernatant on live CHO cells expressing human Nav1.7, duplicate 2
Protocol: as §4

peptide #40a (40 aa) = biological target: T3, peptide #40a (40 aa); assay: ELISA on coated peptide or FC5DIE3IR, mAb detected with HRP anti-mouse Fc, Abs 450nm
Protocol: as §3

peptide #40b (40 aa) = biological target: T7, peptide #40b (40 aa) (human); assay: as above
T7 construct: Custom-synthesized (Biomatik); also called pep #40b; P40b
Protocol: as §3

[10] = biological target: T5, FC5DIE3IR recombinant protein; assay: SPR (Biacore T200), single cycle kinetics, Fc-captured mAb, FC5DIE3IR flowed (320 nM-20 nM), 1:1 model, 25 C
Protocol: as §2

[11] = biological target: T5, FC5DIE3IR recombinant protein; assay: ELISA on coated FC5DIE3IR, serial dilutions of purified mAb; fit One site - Specific binding with Hill slope
Protocol: as §1
(§5) Evaluation of apparent affinity in ELISA. Purified antibodies were assessed for their binding activity by ELISA in a dose-dependent binding curve. Serial 1/3 dilutions of purified mAbs starting at 120 nM were applied onto wells and ELISA was performed as described above (screening section). The data were analyzed with GraphPad Prism software using one-site specific binding-with Hill slope non-linear regression curve fit model to determine Bₘₐₓ (maximum specific binding) and Kdₐₚₚ (concentration needed to achieve a half-maximum binding at equilibrium) for each mAb tested.

[12] = biological target: T5, FC5DIE3IR recombinant protein; assay: ELISA on coated FC5DIE3IR, serial dilutions of purified mAb, OD 405 nm; fit One site - Specific binding with Hill slope; apparent Kd in the unit of the concentration axis (nM), the table itself prints no unit
Protocol: as §1, §5

Binder | concentration response relationship (IC50), hNav1.7 currents (human Nav1.7 polypeptide [1]) | Kd [2] | Kd [3] | Kd [4] | ELISA signal (OD 405 nm) (VHH FC5 [5]) | ELISA signal (OD 405 nm) [6] | binding result (VHH FC5 [7]) | binding result (peptide #2a (20 aa)) | binding result (peptide #2b (20 aa)) | cell ELISA signal (OD 450 nm) (human Nav1.7 polypeptide [8]) | cell ELISA signal (OD 450 nm) (human Nav1.7 polypeptide [9]) | binding result (peptide #40a (40 aa)) | binding result (peptide #40b (40 aa)) | Kd [10] | koff [10] | kon [10] | Bmax [11] | Kd [12]
B1 | 1.48 µM | 2 µM | 1.93 µM | 2.04 µM | – | – | – | – | – | – | – | – | – | – | – | – | – | –
B2 | – | – | – | – | 0.021 OD 405 nm | 0.86 OD 405 nm | no binding | no binding (tested: 1:1000 dilution) | no binding (tested: 1:1000 dilution) | 0.041 OD 450 nm | 0.049 OD 450 nm | binds | no binding | 0.0551 µM | 0.000526 s⁻¹ | 9560 M⁻¹ s⁻¹ | 1.84 OD405 nm | 0.000847 µM
